Tests used:
[1] = molecular target: human SIRPA W287A (V5-tagged library clone on HEK-293T cells) (human, UniProt P78324 31-504); assay: flow cytometry of Fab on HEK-293T cells expressing the mutant, normalised to wild-type SIRPA
Description: (§1) Epitope mapping of anti-SIRPA antibodies was performed using an alanine-scanning library created by shotgun mutagenesis of the human SIRPA cDNA sequence. […] Each of the residues representing the SIRPA extracellular domain (amino acids 31-374 of SEQ ID NO:1) was mutated, most to alanine, while alanine codons were mutated to serine.
(§2) The SIRPA mutant library clones, arrayed in a 384-well microplate, were transfected individually into HEK-293T cells and allowed to express for 22 hours. Antibodies were digested to generate Fabs, after which cells were incubated with Fabs diluted in 10% normal goat serum (NGS) (Sigma-Aldrich, St. Louis, MO). Prior to library screening, primary Fab concentrations were determined using an independent immunofluorescence titration curve against cells expressing wild type SIRPA to ensure that signals were within the linear range of detection. Fabs were detected using 7.5 μg/ml AlexaFluor488-conjugated secondary antibody (Jackson ImmunoResearch Laboratories, Westgrove, PA) in 10% NGS. Cells were washed twice with PBS and resuspended in Cellstripper (Cellgro, Manassas, VA) with 0.1% BSA (Sigma-Aldrich, St. Louis, MO). In some cases, higher stringency conditions were used, including increased pH, increased temperature, and increased dissociation time. Mean cellular fluorescence was detected using the Intellicyt high throughput flow cytometer (HTFC, Intellicyt, Albuquerque, NM). Fab reactivities against each mutant clone were calculated relative to wild-type SIRPA protein reactivity by subtracting the signal from mock-transfected controls, and normalizing to the signal from wild-type SIRPA transfected controls.

[2] = molecular target: human SIRPA Q284A (V5-tagged library clone on HEK-293T cells) (human, UniProt P78324 31-504); assay: as above
Description: as §1, §2

[3] = molecular target: human SIRPA L285A (V5-tagged library clone on HEK-293T cells) (human, UniProt P78324 31-504); assay: as above
Description: as §1, §2

[4] = molecular target: human SIRPA Q281A (V5-tagged library clone on HEK-293T cells) (human, UniProt P78324 31-504); assay: as above
Description: as §1, §2

[5] = molecular target: human SIRPA R282A (V5-tagged library clone on HEK-293T cells) (human, UniProt P78324 31-504); assay: as above
Description: as §1, §2

[6] = molecular target: human SIRPA W315A (V5-tagged library clone on HEK-293T cells) (human, UniProt P78324 31-504); assay: as above
Description: as §1, §2

[7] = molecular target: human SIRPA V302A (V5-tagged library clone on HEK-293T cells) (human, UniProt P78324 31-504); assay: as above
Description: as §1, §2

[8] = molecular target: human SIRPA E297A (V5-tagged library clone on HEK-293T cells) (human, UniProt P78324 31-504); assay: as above
Description: as §1, §2

[9] = molecular target: human SIRPA G337A (V5-tagged library clone on HEK-293T cells) (human, UniProt P78324 31-504); assay: as above
Description: as §1, §2

[10] = molecular target: human SIRPA R295A (V5-tagged library clone on HEK-293T cells) (human, UniProt P78324 31-504); assay: as above
Description: as §1, §2

[11] = molecular target: T1, histidine-tagged human SIRPA v1 (Novoprotein) (human, UniProt P78324 31-370, limits assumed); assay: BLI (Octet)
T1 construct: bought, soluble; also called huSIRPA; soluble huSIRPA; not shown: histidine tag
Description: Initial characterization of affinity matured anti-SIRPA antibodies disclosed herein comprised acquiring antigen affinity measurements using bio-layer interferometry (BLI) on a Pall ForteBio Octet RED96 instrument. Immobilized anti-mouse IgG Fc or anti-human IgG Fc antibodies captured murine anti-SIRPA 3F79 antibody and humanized anti-SIRPA 3F79 antibody on biosensors, respectively. Single cycle kinetics were performed with 25 nM huSIRPA [which variant?] or 50 nM huSIRPB 1 flowed over captured antibody 3F79 to record traces. Data analysis was performed using ForteBio Data Analysis Software, version 9.0. Standard kinetic buffer (PBS, 0.100 BSA, 0.02% Tween-20, pH 7.2) was used for the assay and for preparing reagents. […] 50 nM of histidine-tagged human SIRPA vi or human SIRPB1 (Novoprotein, Summit, NJ, USA) were then bound to the captured anti-SIRPA antibody coated surface (200 s association time, 900 s dissociation time). […] Single-curve kinetic analysis was performed using a 1:1 interaction model to extract association and dissociation rate constants (ka and kd, respectively) for each antibody. Affinity constants (KD) were calculated from the ratio kd/ka.

huSIRPA v.2 NP542970.1 = molecular target: T2, huSIRPA v.2 NP542970.1 (human, UniProt P78324 31-373, limits assumed); assay: ELISA, plate coated with tagged SIRPA at 1 ug/mL
T2 construct: see m48; also called human SIRPA v2; human SIRPA-Fc (v2)
Description: (§3) In an ELISA assay, 96-well Immulon HBX plates were coated with His- or Fc-tagged SIRPA of a given species, as indicated, at 1 μg/mL in PBS overnight at 4C. Plates were blocked in 5% (w/v) bovine serum albumin in PBS for 1 hour, after which they were washed 3 times with PBS/0.05% Tween 20 (PBS/T). Anti-SIRPA antibodies were added to the plate in a dilution series and were incubated at room temperature for 2 hours, after which the unbound antibody was removed by washing with PBS/T. Horseradish peroxidase-conjugated anti-mouse IgG or anti-human kappa light chain (Jackson Immunoresearch) was then added to the wells and incubated for 30 minutes. Unbound antibody was removed by washing with PBS/T, after which bound antibody was detected using tetramethylbenzidine (TMB). The reaction was stopped with 2N H₂SO₄, after which the plates were read at A450.

rat SIRPA = molecular target: T3, rat SIRPA (rat, UniProt P97710 32-373, limits assumed); assay: ELISA, plate coated with tagged SIRPA at 1 ug/mL
T3 sequence (looked up): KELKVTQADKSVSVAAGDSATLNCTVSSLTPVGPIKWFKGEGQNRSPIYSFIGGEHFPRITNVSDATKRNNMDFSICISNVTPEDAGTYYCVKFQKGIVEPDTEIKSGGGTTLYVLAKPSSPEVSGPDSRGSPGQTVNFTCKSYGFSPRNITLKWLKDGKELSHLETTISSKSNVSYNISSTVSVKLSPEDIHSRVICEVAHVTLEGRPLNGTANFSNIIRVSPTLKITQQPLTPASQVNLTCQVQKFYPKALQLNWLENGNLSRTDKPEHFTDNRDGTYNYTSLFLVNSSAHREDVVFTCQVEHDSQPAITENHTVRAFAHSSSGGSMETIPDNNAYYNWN
Description: as §3

cynoSIRPA XPO15313153.1 = molecular target: T4, cynoSIRPA XPO15313153.1 (cynomolgus, UniProt A0A2K5VYQ9); assay: ELISA, plate coated with tagged SIRPA at 1 ug/mL
T4 construct: not tied one by one in the text; also called cynomolgus SIRPA; not shown: Fc or His tag
T4 sequence: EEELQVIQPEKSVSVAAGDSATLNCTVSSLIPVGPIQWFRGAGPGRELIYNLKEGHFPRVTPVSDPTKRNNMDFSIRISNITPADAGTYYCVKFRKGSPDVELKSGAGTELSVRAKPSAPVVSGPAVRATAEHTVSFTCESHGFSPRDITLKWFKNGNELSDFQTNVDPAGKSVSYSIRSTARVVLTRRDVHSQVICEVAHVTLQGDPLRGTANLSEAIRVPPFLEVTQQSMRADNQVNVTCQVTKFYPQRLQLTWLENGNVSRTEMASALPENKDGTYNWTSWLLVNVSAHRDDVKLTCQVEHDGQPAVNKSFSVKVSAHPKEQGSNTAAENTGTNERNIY
Description: as §3

[12] = molecular target: T5, human SIRPA v1 on BWZ cells (BWZ-huSIRPA) (human, UniProt P78324 31-504); assay: flow cytometry titration on BWZ-huSIRPA cells, 4 C
T5 construct: also called BWZ cells overexpressing human SIRPA; BWZ-huSIRPA v1 cells
Description: After addition of fluorescently labeled secondary antibody and brief washing steps, MFI values as a function of titrated antibody concentration was recorded via FACS analysis. […] Receptor bound antibodies were detected by staining cells with anti-human IgG PE secondary antibody. Curves were fit using nonlinear regression analysis with Graphpad Prism 6 software.

[13] = molecular target: T1, histidine-tagged human SIRPA v1 …; assay: BLI (Octet), antibody on anti-human IgG Fc sensor, His-huSIRPA in solution, single-curve 1:1 fit
[14] = molecular target: T6, Fc-tagged dog SIRPA (accession no. XP005634938) (dog, UniProt A0A8I3P880); assay: ELISA, plate coated with Fc-tagged SIRPA
T6 sequence: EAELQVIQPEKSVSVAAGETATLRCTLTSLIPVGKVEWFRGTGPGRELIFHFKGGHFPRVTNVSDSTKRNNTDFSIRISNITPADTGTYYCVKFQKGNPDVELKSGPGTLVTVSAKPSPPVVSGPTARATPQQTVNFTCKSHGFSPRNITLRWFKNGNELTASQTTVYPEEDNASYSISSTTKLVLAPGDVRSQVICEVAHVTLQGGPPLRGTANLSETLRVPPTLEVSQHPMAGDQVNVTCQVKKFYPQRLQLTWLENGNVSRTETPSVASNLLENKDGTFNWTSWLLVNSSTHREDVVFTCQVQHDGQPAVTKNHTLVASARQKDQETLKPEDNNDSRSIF
Description: as §3

[15] = molecular target: T7, Fc-tagged marmoset SIRPA (accession no. JAB51896) (marmoset, UniProt U3F8F0 31-373); assay: ELISA, plate coated with Fc-tagged SIRPA
T7 sequence: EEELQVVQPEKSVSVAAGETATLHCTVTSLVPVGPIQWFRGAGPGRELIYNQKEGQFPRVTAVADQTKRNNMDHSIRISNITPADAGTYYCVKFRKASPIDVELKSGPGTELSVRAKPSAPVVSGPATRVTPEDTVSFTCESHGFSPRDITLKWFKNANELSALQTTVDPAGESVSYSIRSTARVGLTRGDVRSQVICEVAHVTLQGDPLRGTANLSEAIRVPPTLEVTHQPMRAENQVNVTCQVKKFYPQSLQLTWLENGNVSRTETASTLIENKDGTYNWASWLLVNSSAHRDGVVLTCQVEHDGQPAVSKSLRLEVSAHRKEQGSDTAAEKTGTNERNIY
Description: as §3

[16] = molecular target: T8, human SIRPA on human macrophages (primary monocyte-derived macrophages; U937 line) (human, UniProt P78324 31-504); assay: cell-based or functional assay
[17] = molecular target: T8, human SIRPA on human macrophages …; assay: cell-based or functional assay; remark: listed apart in the source

T8 sequence (P78324 31-370): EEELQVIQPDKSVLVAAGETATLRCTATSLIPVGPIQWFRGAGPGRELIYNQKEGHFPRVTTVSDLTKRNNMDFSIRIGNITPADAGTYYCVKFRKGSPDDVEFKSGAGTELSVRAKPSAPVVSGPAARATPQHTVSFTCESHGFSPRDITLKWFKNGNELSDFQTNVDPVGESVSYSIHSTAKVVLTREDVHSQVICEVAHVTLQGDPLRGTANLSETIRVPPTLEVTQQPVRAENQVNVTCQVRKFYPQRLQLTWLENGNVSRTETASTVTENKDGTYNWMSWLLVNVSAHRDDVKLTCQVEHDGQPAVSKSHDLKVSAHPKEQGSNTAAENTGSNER
T1 sequence (P78324 31-370 limits assumed): as the sequence (P78324 31-370) above
Chain of human SIRPA Q284A (V5-tagged library clone on HEK-293T cells) (P78324 31-504 Q284A): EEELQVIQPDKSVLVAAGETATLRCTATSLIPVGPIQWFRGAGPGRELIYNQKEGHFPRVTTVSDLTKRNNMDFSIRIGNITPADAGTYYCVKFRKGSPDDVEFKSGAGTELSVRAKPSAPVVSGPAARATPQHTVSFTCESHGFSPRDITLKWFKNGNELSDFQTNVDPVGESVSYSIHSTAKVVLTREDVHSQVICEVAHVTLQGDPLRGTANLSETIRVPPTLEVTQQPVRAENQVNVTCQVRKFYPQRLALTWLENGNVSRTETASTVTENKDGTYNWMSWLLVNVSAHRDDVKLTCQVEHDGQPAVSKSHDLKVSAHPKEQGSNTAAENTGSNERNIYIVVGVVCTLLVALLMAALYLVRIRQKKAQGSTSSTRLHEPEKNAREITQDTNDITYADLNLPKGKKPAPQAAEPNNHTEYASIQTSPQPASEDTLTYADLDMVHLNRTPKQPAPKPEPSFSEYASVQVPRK
Chain of human SIRPA R282A (V5-tagged library clone on HEK-293T cells) (P78324 31-504 R282A): as the sequence (P78324 31-504 Q284A) above, with R252A, A254Q counted along it
Chain of human SIRPA W315A (V5-tagged library clone on HEK-293T cells) (P78324 31-504 W315A): as the sequence (P78324 31-504 Q284A) above, with A254Q, W285A counted along it
T5 sequence (P78324 31-504): as the sequence (P78324 31-504 Q284A) above, with A254Q counted along it
Chain of human SIRPA R295A (V5-tagged library clone on HEK-293T cells) (P78324 31-504 R295A): as the sequence (P78324 31-504 Q284A) above, with A254Q, R265A counted along it
Chain of human SIRPA G337A (V5-tagged library clone on HEK-293T cells) (P78324 31-504 G337A): as the sequence (P78324 31-504 Q284A) above, with A254Q, G307A counted along it
Chain of human SIRPA Q281A (V5-tagged library clone on HEK-293T cells) (P78324 31-504 Q281A): as the sequence (P78324 31-504 Q284A) above, with Q251A, A254Q counted along it
Chain of human SIRPA E297A (V5-tagged library clone on HEK-293T cells) (P78324 31-504 E297A): as the sequence (P78324 31-504 Q284A) above, with A254Q, E267A counted along it
Chain of human SIRPA L285A (V5-tagged library clone on HEK-293T cells) (P78324 31-504 L285A): as the sequence (P78324 31-504 Q284A) above, with A254Q, L255A counted along it
T2 sequence (P78324 31-373 limits assumed): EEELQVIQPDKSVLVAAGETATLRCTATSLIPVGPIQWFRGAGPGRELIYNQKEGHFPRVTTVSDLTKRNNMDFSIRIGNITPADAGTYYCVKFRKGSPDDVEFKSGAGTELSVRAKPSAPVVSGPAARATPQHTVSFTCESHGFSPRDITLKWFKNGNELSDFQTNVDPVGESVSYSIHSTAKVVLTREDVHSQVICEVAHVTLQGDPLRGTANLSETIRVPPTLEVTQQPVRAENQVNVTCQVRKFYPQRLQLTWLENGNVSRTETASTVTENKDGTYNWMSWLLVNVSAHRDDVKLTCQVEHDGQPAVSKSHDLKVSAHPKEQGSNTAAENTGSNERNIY
Chain of human SIRPA W287A (V5-tagged library clone on HEK-293T cells) (P78324 31-504 W287A): as the sequence (P78324 31-504 Q284A) above, with A254Q, W257A counted along it
Chain of human SIRPA V302A (V5-tagged library clone on HEK-293T cells) (P78324 31-504 V302A): as the sequence (P78324 31-504 Q284A) above, with A254Q, V272A counted along it

B1: 3F9 Fab (Fab, V domains shown)
VH: EVKLVESGGGLVKPGGSLKLSCAASGFTFSSYAMSWVRQTPEKRLEWVATISDYGGSYTYYPDSVKGRFTISRDNAKYTLYLQMSSLRSEDTALYYCARPPYDDYYGGFAYWGQGTLVTVSA
VL: DIVLTQSPASLAVSLGQRATISCRASKSVSSSGYSYMHWYQQKPGQPPKLLIYLASNLESGVPARFSGSGSGTDFTLNIHPVEEEDAATYYCQHNRELPCTFGGGTKLEIK
- Binding Reactivity (% WT) [1]: 125 % WT
- Binding Reactivity (% WT) [2]: 3.3 % WT
- Binding Reactivity (% WT) [3]: 107 % WT
- Binding Reactivity (% WT) [4]: 151 % WT
- Binding Reactivity (% WT) [5]: 3.8 % WT
- Binding Reactivity (% WT) [6]: 117 % WT
- Binding Reactivity (% WT) [7]: 92.3 % WT
- Binding Reactivity (% WT) [8]: 117 % WT
- Binding Reactivity (% WT) [9]: 17.9 % WT
- Binding Reactivity (% WT) [10]: 121 % WT

B2: 3F9-22 (antibody)
heavy: not shown
light: DIQLTQSPSSLSASVGDRVTITCRASKSVSSGGYSYMHWYQQKPGKAPKLLIYLASNLESGVPSRFSGSGSGTDFTLTISSVQPEDFATYYCQHNRELPVTFGQGTKLEIKRTVAAPSVFIFPPSDEQLKSGTASVVCLLNNFYPREAKVQWKVDNALQSGNSQESVTEQDSKDSTYSLSSTLTLSKADYEKHKVYACEVTHQGLSSPVTKSFNRGEC
notes: also called mAb 3F9-22; hu3F9-22
- fold increase in affinity relative to parental h3F9 [11]: ~10 fold
- EC50 (huSIRPA v.2 NP542970.1): 0.082 nM
- binding result (rat SIRPA): no binding
- EC50 (cynoSIRPA XPO15313153.1): 0.107 nM
- EC50 [12]: 0.49 nM
- Kd [13]: 0.646 nM
- koff [13]: 0.000113 s⁻¹
- kon [13]: 174000 M⁻¹ s⁻¹
- EC50 [14]: 0.83 nM
- EC50 [15]: 4.3 nM
- Phagocytosis, fold increase over baseline activity [16]: 1.68 fold
- SIRPA IC50 (nM), downregulation on human primary macrophages [16]: 0.0542 nM
- SIRPA Max % DR, human primary macrophages [16]: 91%
- SIRPA IC50 (nM), downregulation on U937 cells [17]: 0.187 nM
- SIRPA Max % DR, U937 cells [17]: 76%

Source: patent US20240301071A1 (Alector, published 2024)
